Results taken from paper PMC2782037 (The Journal of Biological Chemistry, 2009).

Target: Human FANCD2, non-tagged (human, UniProt Q9BXW9-2 1-1451)
Test: co-IP

Human FANCD2, non-tagged, sequence (Q9BXW9 whole entry): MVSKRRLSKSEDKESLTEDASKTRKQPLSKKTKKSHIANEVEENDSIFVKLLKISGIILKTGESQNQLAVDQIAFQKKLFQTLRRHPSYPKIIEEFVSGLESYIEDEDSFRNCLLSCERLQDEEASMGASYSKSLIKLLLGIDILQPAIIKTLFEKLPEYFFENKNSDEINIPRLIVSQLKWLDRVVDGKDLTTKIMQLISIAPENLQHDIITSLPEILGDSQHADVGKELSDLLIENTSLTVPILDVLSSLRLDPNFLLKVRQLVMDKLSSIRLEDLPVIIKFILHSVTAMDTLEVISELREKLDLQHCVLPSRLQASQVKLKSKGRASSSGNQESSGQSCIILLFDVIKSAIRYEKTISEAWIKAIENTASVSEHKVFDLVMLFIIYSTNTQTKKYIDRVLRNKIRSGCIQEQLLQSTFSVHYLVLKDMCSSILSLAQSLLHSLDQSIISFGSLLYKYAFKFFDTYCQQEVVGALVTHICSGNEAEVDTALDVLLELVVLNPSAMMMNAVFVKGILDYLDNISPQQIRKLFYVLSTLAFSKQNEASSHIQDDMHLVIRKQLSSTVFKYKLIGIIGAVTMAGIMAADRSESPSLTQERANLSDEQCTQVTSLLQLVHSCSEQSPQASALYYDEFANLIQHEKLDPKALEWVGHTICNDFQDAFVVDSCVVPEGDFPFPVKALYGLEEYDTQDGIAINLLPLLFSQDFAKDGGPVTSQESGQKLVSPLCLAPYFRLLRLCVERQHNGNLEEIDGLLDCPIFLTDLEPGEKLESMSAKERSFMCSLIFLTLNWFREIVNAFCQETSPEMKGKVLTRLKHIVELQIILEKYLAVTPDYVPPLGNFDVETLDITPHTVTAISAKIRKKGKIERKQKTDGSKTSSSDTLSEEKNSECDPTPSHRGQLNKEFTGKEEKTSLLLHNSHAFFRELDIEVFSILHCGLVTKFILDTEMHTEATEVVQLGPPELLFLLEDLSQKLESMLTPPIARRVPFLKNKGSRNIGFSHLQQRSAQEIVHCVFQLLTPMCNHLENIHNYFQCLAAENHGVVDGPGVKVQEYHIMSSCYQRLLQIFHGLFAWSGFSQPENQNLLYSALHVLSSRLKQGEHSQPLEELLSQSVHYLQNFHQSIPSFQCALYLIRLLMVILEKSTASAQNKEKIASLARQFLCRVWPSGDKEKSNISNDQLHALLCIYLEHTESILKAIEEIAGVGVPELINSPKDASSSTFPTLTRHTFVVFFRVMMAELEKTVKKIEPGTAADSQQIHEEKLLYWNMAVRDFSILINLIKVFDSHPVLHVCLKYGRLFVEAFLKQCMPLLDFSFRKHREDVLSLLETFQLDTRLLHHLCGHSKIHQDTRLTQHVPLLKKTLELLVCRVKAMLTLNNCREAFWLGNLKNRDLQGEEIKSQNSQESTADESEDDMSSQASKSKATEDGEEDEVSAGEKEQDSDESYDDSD

Row | Binder | binding result
1 | FANCI-D1301A, hexahistidine-tagged (EDGE motif mutant) (natural protein, human, UniProt Q9NVI1-3 1-1328, looked up) MDQKILSLAAEKTADKLQEFLQTLREGDLTNLLQNQAVKGKVAGALLRAIFKGSPCSEEAGTLRRRKIYTCCIQLVESGDLQKEIASEIIGLLMLEAHHFPGPLLVELANEFISAVREGSLVNGKSLELLPIILTALATKKENLAYGKGVLSGEECKKQLINTLCSGRWDQQYVIQLTSMFKDVPLTAEEVEFVVEKALSMFSKMNLQEIPPLVYQLLVLSSKGSRKSVLEGIIAFFSALDKQHNEEQSGDELLDVVTVPSGELRHVEGTIILHIVFAIKLDYELGRELVKHLKVGQQGDSNNNLSPFSIALLLSVTRIQRFQDQVLDLLKTSVVKSFKDLQLLQGSKFLQNLVPHRSYVSTMILEVVKNSVHSWDHVTQGLVELGFILMDSYGPKKVLDGKTIETSPSLSRMPNQHACKLGANILLETFKIHEMIRQEILEQVLNRVVTRASSPISHFLDLLSNIVMYAPLVLQSCSSKVTEAFDYLSFLPLQTVQRLLKAVQPLLKVSMSMRDCLILVLRKAMFANQLDARKSAVAGFLLLLKNFKVLGSLSSSQCSQSLSVSQVHVDVHSHYNSVANETFCLEIMDSLRRCLSQQADVRLMLYEGFYDVLRRNSQLANSVMQTLLSQLKQFYEPKPDLLPPLKLEACILTQGDKISLQEPLDYLLCCIQHCLAWYKNTVIPLQQGEEEEEEEEAFYEDLDDILESITNRMIKSELEDFELDKSADFSQSTSIGIKNNICAFLVMGVCEVLIEYNFSISSFSKNRFEDILSLFMCYKKLSDILNEKAGKAKTKMANKTSDSLLSMKFVSSLLTALFRDSIQSHQESLSVLRSSNEFMRYAVNVALQKVQQLKETGHVSGPDGQNPEKIFQNLCDITRVLLWRYTSIPTSVEESGKKEKGKSISLLCLEGLQKIFSAVQQFYQPKIQQFLRALDVTDKEGEEREDADVSVTQRTAFQIRQFQRSLLNLLSSQEEDFNSKEALLLVTVLTSLSKLLEPSSPQFVQMLSWTSKICKENSREDALFCKSLMNLLFSLHVSYKSPVILLRDLSQDIHGHLGDIDQDVEVEKTNHFAIVNLRTAAPTVCLLVLSQAEKVLEEVDWLITKLKGQVSQETLSEEASSQATLPNQPVEKAIIMQLGTLLTFFHELVQTALPSGSCVDTLLKDLCKMYTTLTALVRYYLQVCQSSGGIPKNMEKLVKLSGSHLTPLCYSFISYVQNKSKSLNYTGEKKEKPAAVATAMARVLRETKPIPNLIFAIEQYEKFLIHLSKKSKVNLMQHMKLSTSRDFKIKGNILDMVLREAGEDENEEGTASEHGGQNKEPAKKKRKK | binds
2 | FANCI-(1001–1328), hexahistidine-tagged (domain or fragment, human, UniProt Q9NVI1-3 1001-1328, looked up) PQFVQMLSWTSKICKENSREDALFCKSLMNLLFSLHVSYKSPVILLRDLSQDIHGHLGDIDQDVEVEKTNHFAIVNLRTAAPTVCLLVLSQAEKVLEEVDWLITKLKGQVSQETLSEEASSQATLPNQPVEKAIIMQLGTLLTFFHELVQTALPSGSCVDTLLKDLCKMYTTLTALVRYYLQVCQSSGGIPKNMEKLVKLSGSHLTPLCYSFISYVQNKSKSLNYTGEKKEKPAAVATAMARVLRETKPIPNLIFAIEQYEKFLIHLSKKSKVNLMQHMKLSTSRDFKIKGNILDMVLREDGEDENEEGTASEHGGQNKEPAKKKRKK | binds
